To fix the notation:
B1: SEQ ID NO: 470 (peptide)
peptide: Ac-W[NMeA]QSILDEH[Chg]QKVWG-NH2
modifications: lactam 8-12; not fully specified; printed as Ac-NH-W-NMeA-QSILDE*H-Chg-QK*VWG-NH2
B2: SEQ ID NO: 437 (peptide)
peptide: WAQSILDEHVQKVWG
HELM: PEPTIDE1{[ac].W.[meA].Q.S.I.L.D.E.H.V.Q.K.V.W.G.[am]}$PEPTIDE1,PEPTIDE1,9:R3-13:R3$$$V2.0
SMILES: CC[C@H](C)[C@H](NC(=O)[C@H](CO)NC(=O)[C@H](CCC(N)=O)NC(=O)[C@H](C)N(C)C(=O)[C@H](Cc1c[nH]c2ccccc12)NC(C)=O)C(=O)N[C@@H](CC(C)C)C(=O)N[C@@H](CC(=O)O)C(=O)N[C@H]1CCC(=O)NCCCC[C@@H](C(=O)N[C@H](C(=O)N[C@@H](Cc2c[nH]c3ccccc23)C(=O)NCC(N)=O)C(C)C)NC(=O)[C@H](CCC(N)=O)NC(=O)[C@H](C(C)C)NC(=O)[C@H](Cc2c[nH]cn2)NC1=O
B3: SEQ ID NO: 416 (peptide)
peptide: WAQKILDEHGSRVWG
HELM: PEPTIDE1{[ac].W.[meA].Q.K.I.L.D.E.H.[O=C([C@@H](N[*:1])C1CCCCC1)[*:2]].S.R.V.W.G.[am]}$PEPTIDE1,PEPTIDE1,5:R3-9:R3$$$V2.0
SMILES: CC[C@H](C)[C@@H]1NC(=O)[C@@H](NC(=O)[C@H](CCC(N)=O)NC(=O)[C@H](C)N(C)C(=O)[C@H](Cc2c[nH]c3ccccc23)NC(C)=O)CCCCNC(=O)CC[C@@H](C(=O)N[C@@H](Cc2c[nH]cn2)C(=O)N[C@H](C(=O)N[C@@H](CO)C(=O)N[C@@H](CCCNC(=N)N)C(=O)N[C@H](C(=O)N[C@@H](Cc2c[nH]c3ccccc23)C(=O)NCC(N)=O)C(C)C)C2CCCCC2)NC(=O)[C@H](CC(=O)O)NC(=O)[C@H](CC(C)C)NC1=O
B4: SEQ ID NO: 421 (peptide)
peptide: WAQKGLDEHVQRVWG
HELM: PEPTIDE1{[ac].W.[meA].Q.K.[O=C([C@@H](N[*:1])C1CCCCC1)[*:2]].L.D.E.H.V.Q.R.V.W.G.[am]}$PEPTIDE1,PEPTIDE1,5:R3-9:R3$$$V2.0
SMILES: CC(=O)N[C@@H](Cc1c[nH]c2ccccc12)C(=O)N(C)[C@@H](C)C(=O)N[C@@H](CCC(N)=O)C(=O)N[C@H]1CCCCNC(=O)CC[C@@H](C(=O)N[C@@H](Cc2c[nH]cn2)C(=O)N[C@H](C(=O)N[C@@H](CCC(N)=O)C(=O)N[C@@H](CCCNC(=N)N)C(=O)N[C@H](C(=O)N[C@@H](Cc2c[nH]c3ccccc23)C(=O)NCC(N)=O)C(C)C)C(C)C)NC(=O)[C@H](CC(=O)O)NC(=O)[C@H](CC(C)C)NC(=O)[C@H](C2CCCCC2)NC1=O
B5: SEQ ID NO: 420 (peptide)
peptide: WAQKGLDEHVQRVWG
HELM: PEPTIDE1{W.[meA].Q.K.[O=C([C@@H](N[*:1])C1CCCCC1)[*:2]].L.D.E.H.V.Q.R.V.W.G.[am]}$PEPTIDE1,PEPTIDE1,4:R3-8:R3$$$V2.0
SMILES: CC(C)C[C@@H]1NC(=O)[C@H](C2CCCCC2)NC(=O)[C@@H](NC(=O)[C@H](CCC(N)=O)NC(=O)[C@H](C)N(C)C(=O)[C@@H](N)Cc2c[nH]c3ccccc23)CCCCNC(=O)CC[C@@H](C(=O)N[C@@H](Cc2c[nH]cn2)C(=O)N[C@H](C(=O)N[C@@H](CCC(N)=O)C(=O)N[C@@H](CCCNC(=N)N)C(=O)N[C@H](C(=O)N[C@@H](Cc2c[nH]c3ccccc23)C(=O)NCC(N)=O)C(C)C)C(C)C)NC(=O)[C@H](CC(=O)O)NC1=O
B6: SEQ ID NO: 422 (peptide)
peptide: W[NMeA]QK[Chg]LDEHVQRVWG-NH2
modifications: lactam 4-8; not fully specified (N-terminus); printed as H17C8C(O)NH-W-NMeA-QK*-Chg-LDE*HVQRVWG-NH2

“And” between values parts separate entries of the source, which are not always exact repeats. Equal values may be shown once. Bridges are numbered along the chain shown (N, C = ends). Where no end group is shown, it is not given here. [ ]: non-standard residue; d: D form. Chg = N[C@H](C(=O)O)C1CCCCC1; NMeA = CN[C@@H](C)C(=O)O

Broadly, the Kd is the equilibrium constant for the complex coming apart. A low value points to tighter binding.

The test addresses T1, β-catenin (UniProt P35222 134-665, limits assumed, biotinylated in the SPR and plate assays).
T1 construct: also called beta catenin; biotinylated β-catenin
T1 sequence (looked up): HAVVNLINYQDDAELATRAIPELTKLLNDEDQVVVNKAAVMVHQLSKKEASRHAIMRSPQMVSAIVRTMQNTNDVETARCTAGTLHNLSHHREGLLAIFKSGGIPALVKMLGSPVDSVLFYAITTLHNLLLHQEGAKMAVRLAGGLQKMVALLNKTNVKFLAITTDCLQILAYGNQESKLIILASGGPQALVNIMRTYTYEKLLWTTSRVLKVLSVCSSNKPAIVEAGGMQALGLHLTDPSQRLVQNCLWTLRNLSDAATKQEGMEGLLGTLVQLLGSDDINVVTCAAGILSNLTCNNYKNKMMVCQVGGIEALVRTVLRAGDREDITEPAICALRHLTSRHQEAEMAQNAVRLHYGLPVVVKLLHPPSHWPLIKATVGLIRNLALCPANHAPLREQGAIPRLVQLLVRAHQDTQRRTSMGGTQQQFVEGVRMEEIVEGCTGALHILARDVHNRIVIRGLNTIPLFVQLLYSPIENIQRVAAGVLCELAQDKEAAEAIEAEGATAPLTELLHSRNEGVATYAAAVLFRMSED
Description: competitive FP. The text has this: Fluorescence polarization (FP) is another method used to analyze protein-ligand interactions. This methodology measures the change in fluorescence light emitted by a labelled compound free vs. conjugated to another compound in solution. Upon binding of the fluorescent molecule to a complex, polarization increases because of limited rotation of the fluorescent tracer. Competitive FP is often utilized in drug screens as it is formatted for high throughput screens in a plate format. This immunoassay is performed by introducing a non-conjugated drug to compete for binding to the labelled competitor-ligand complex, leading to a reduction in polarization. […] Exemplary methodology is described in Example 13. Data were analyzed and plotted in Microsoft Excel (Microsoft, Redmond, WA).
Varying concentrations of β-catenin inhibitor candidate (SEQ ID NO: 404) were then added in a series of serial dilutions from 10 nM to 30 uM of inhibitor in different wells of the plate. The fluorescence polarization was read by Infinite M1000 (Tecan, Baldwin Park CA) at excitation wavelength of 470 nm and measured at emission wavelength of 520 nm. […] The experiments were performed three times and data were analyzed and plotted in Microsoft Excel (Microsoft, Redmond, WA).
As to B1, the Kd was not above 400 nM.

With B2, the Kd was not above 400 nM.

B3: the Kd is not above 400 nM.

The molecule B4 registered a Kd not above 400 nM.

On to B5, for which the Kd was > 400 nM and ≤ 1000 nM.

As for B6, the Kd is > 400 nM and ≤ 1000 nM.

The values are drawn from patent US20260098059A1 (ENDOMET BIOSCIENCES, published 2026).
